pKd: −log10 of the molar value.
Key:
HLA-A*24:02 = assay: IEDB peptide-MHC binding, purified MHC/competitive/fluorescence; filed as Kd, often an IC50 or EC50 that approximates it; ≥ and ≤ were set here for values at or beyond the usual limits of such assays
HLA-A*02:01 [1] = assay: IEDB peptide-MHC binding, purified MHC/direct/fluorescence; filed as Kd, often an IC50 or EC50 that approximates it; ≥ and ≤ were set here for values at or beyond the usual limits of such assays
HLA-A*02:03 = assay: as above
HLA-A*02:11 = assay: as above
HLA-A*02:12 = assay: as above
HLA-A*02:16 = assay: as above
HLA-A*02:19 = assay: as above
HLA-A*03:01 = assay: as above
HLA-A*24:03 = assay: as above
HLA-A*26:01 = assay: as above
HLA-A*68:02 = assay: as above; conditions: source organism: Crocodilepox virus
HLA-B*27:03 = assay: as above
HLA-B*39:01 = assay: as above
HLA-B*51:01 = assay: as above
HLA-B*57:01 = assay: as above
HLA-C*07:02 = assay: as above; conditions: source organism: Listeria monocytogenes EGD-e
HLA-C*14:02 = assay: as above; conditions: source organism: Listeria monocytogenes EGD-e
HLA-C*15:02 = assay: as above; conditions: source organism: Listeria monocytogenes EGD-e
HLA-A*80:01 = assay: as above; conditions: source organism: Yellow fever virus
HLA-C*08:02 = assay: as above
HLA-A*02:01 [2] = assay: IEDB peptide-MHC binding, purified MHC/competitive/fluorescence; filed as Kd, often an IC50 or EC50 that approximates it; ≥ and ≤ were set here for values at or beyond the usual limits of such assays; conditions: source organism: Yersinia pestis Nepal516
HLA-B*35:01 = assay: as above; conditions: source organism: Yersinia pestis Nepal516
HLA-A*01:01 = assay: IEDB peptide-MHC binding, purified MHC/direct/fluorescence; filed as Kd, often an IC50 or EC50 that approximates it; ≥ and ≤ were set here for values at or beyond the usual limits of such assays; conditions: source organism: Giardia lamblia ATCC 50803
HLA-A*11:01 = assay: as above; conditions: source organism: Giardia lamblia ATCC 50803
HLA-A*31:01 = assay: as above; conditions: source organism: Giardia lamblia ATCC 50803
HLA-A*69:01 = assay: as above
HLA-B*07:02 = assay: as above; conditions: source organism: Giardia lamblia ATCC 50803
HLA-B*08:01 = assay: as above; conditions: source organism: Giardia lamblia ATCC 50803
HLA-B*08:02 = assay: as above; conditions: source organism: Giardia lamblia ATCC 50803
HLA-B*15:01 = assay: as above
HLA-B*15:17 = assay: as above
HLA-B*18:01 = assay: as above
HLA-B*27:05 = assay: as above; conditions: source organism: Giardia lamblia ATCC 50803
HLA-B*38:01 = assay: as above; conditions: source organism: Giardia lamblia ATCC 50803
HLA-B*40:01 = assay: as above; conditions: source organism: Giardia lamblia ATCC 50803
HLA-B*46:01 = assay: as above
HLA-B*48:01 = assay: as above; conditions: source organism: Giardia lamblia ATCC 50803
HLA-B*58:01 = assay: as above; conditions: source organism: Giardia lamblia ATCC 50803
HLA-A*26:02 = assay: IEDB peptide-MHC binding, purified MHC/competitive/fluorescence; filed as Kd, often an IC50 or EC50 that approximates it; ≥ and ≤ were set here for values at or beyond the usual limits of such assays; conditions: source organism: Hantaan virus 76-118
HLA-A*29:02 = assay: IEDB peptide-MHC binding, purified MHC/direct/fluorescence; filed as Kd, often an IC50 or EC50 that approximates it; ≥ and ≤ were set here for values at or beyond the usual limits of such assays; conditions: source organism: Entamoeba histolytica HM-1:IMSS
[3] = source organism: Crocodilepox virus
[4] = source organism: Listeria monocytogenes EGD-e
[5] = source organism: Giardia lamblia ATCC 50803
[6] = source organism: Brucella suis 1330
[7] = source organism: Yellow fever virus
[8] = source organism: Entamoeba histolytica HM-1:IMSS

LYKKLKREITF was tested, and the pKd (HLA-A*24:02; source organism: Influenza A virus (A/goose/Hong Kong/437-6/1999(H5N1))) was 8.29.
In the case of VVARLGVPY, the pKd (HLA-A*02:01 [1]; [3]) was at most 4.70, the pKd (HLA-A*02:03; [3]) was at most 4.70 and the pKd (HLA-A*02:11; [3]) was at most 4.70. It also gave a pKd (HLA-A*02:12; [3]) of at most 4.70, a pKd (HLA-A*02:16; [3]) of at most 4.70 and a pKd (HLA-A*02:19; [3]) of at most 4.70. The pKd (HLA-A*03:01; [3]) was at most 4.70, the pKd (HLA-A*24:03; [3]) was at most 4.70 and the pKd (HLA-A*26:01; [3]) was at most 4.70. It also gave a pKd (HLA-A*68:02) of at most 4.70, a pKd (HLA-B*27:03; [3]) of at most 4.70 and a pKd (HLA-B*39:01; [3]) of at most 4.70. For the same sequence, the pKd (HLA-B*51:01; [3]) was at most 4.70 and the pKd (HLA-B*57:01; [3]) was at most 4.70.
Work on RYPRSVLTF yielded a pKd (HLA-A*24:03; [4]) of at least 9.00, a pKd (HLA-C*07:02) of 7.36 and a pKd (HLA-C*14:02) of at least 9.00. The pKd (HLA-C*15:02) was at most 4.70 and the pKd (HLA-A*24:02; [4]) was at least 10.00.
For GVEGIGLQY, the pKd (HLA-A*80:01) was 6.47.
STAPTGSWF showed a pKd (HLA-C*08:02; source organism: human gammaherpesvirus 4) of at most 4.70.
Sequence FVADYLARF has a pKd (HLA-C*08:02; source organism: Yersinia pestis Nepal516) of 5.56, a pKd (HLA-A*02:01 [2]) of 7.09 and a pKd (HLA-B*35:01) of 8.48.
SWFNSFLTHAL was tested, and the pKd (HLA-A*24:02; source organism: Influenza A virus (A/X-31(H3N2))) was 6.82.
RYGPALSI gave a pKd (HLA-A*24:02; source organism: Influenza A virus H3N2) of at least 10.00.
For QPWTPVSSF, the pKd (HLA-A*01:01) was at most 4.70, the pKd (HLA-A*02:01 [1]; [5]) was at most 4.70 and the pKd (HLA-A*03:01; [5]) was at most 4.70. It also gave a pKd (HLA-A*11:01) of at most 4.70, a pKd (HLA-A*26:01; [5]) of at most 4.70 and a pKd (HLA-A*31:01) of at most 4.70. For the same sequence, the pKd (HLA-A*69:01; [5]) was at most 4.70, the pKd (HLA-B*07:02) was 6.87 and the pKd (HLA-B*08:01) was at most 4.70. For the same sequence, the pKd (HLA-B*08:02) was at most 4.70, the pKd (HLA-B*15:01; [5]) was at most 4.70 and the pKd (HLA-B*15:17; [5]) was 5.58. For the same sequence, the pKd (HLA-B*18:01; [5]) was 5.61, the pKd (HLA-B*27:05) was at most 4.70 and the pKd (HLA-B*38:01) was at most 4.70. It also gave a pKd (HLA-B*40:01) of at most 4.70, a pKd (HLA-B*46:01; [5]) of at most 4.70 and a pKd (HLA-B*48:01) of at most 4.70. For the same sequence, the pKd (HLA-B*51:01; [5]) was at most 4.70, the pKd (HLA-B*57:01; [5]) was at most 4.70 and the pKd (HLA-B*58:01) was 4.72.
Work on DPPEPLVRI yielded a pKd (HLA-A*02:01 [1]; [6]) of at most 4.70, a pKd (HLA-A*02:03; [6]) of at most 4.70 and a pKd (HLA-A*02:12; [6]) of at most 4.70. The pKd (HLA-A*02:16; [6]) was at most 4.70, the pKd (HLA-A*02:19; [6]) was at most 4.70 and the pKd (HLA-A*03:01; [6]) was at most 4.70. For the same sequence, the pKd (HLA-A*26:01; [6]) was at most 4.70, the pKd (HLA-A*69:01; [6]) was at most 4.70 and the pKd (HLA-B*15:01; [6]) was at most 4.70. The pKd (HLA-B*18:01; [6]) was at most 4.70, the pKd (HLA-B*27:03; [6]) was at most 4.70 and the pKd (HLA-B*39:01; [6]) was at most 4.70. The pKd (HLA-B*46:01; [6]) was at most 4.70, the pKd (HLA-B*51:01; [6]) was 5.73 and the pKd (HLA-B*57:01; [6]) was at most 4.70.
Sequence GTGDSRLTY has a pKd (HLA-A*02:01 [1]; [7]) of at most 4.70, a pKd (HLA-A*69:01; [7]) of at most 4.70 and a pKd (HLA-A*80:01) of 6.70.
ETYKELKAH gave a pKd (HLA-A*26:01; source organism: Orthohantavirus hantanense) of 6.60 and a pKd (HLA-A*26:02) of 7.93.
DSFAKQPQW showed a pKd (HLA-A*02:01 [1]; [8]) of at most 4.70, a pKd (HLA-A*02:03; [8]) of at most 4.70 and a pKd (HLA-A*02:11; [8]) of at most 4.70. The pKd (HLA-A*02:12; [8]) was at most 4.70, the pKd (HLA-A*02:16; [8]) was at most 4.70 and the pKd (HLA-A*02:19; [8]) was at most 4.70. It also gave a pKd (HLA-A*03:01; [8]) of at most 4.70, a pKd (HLA-A*24:03; [8]) of at most 4.70 and a pKd (HLA-A*26:01; [8]) of at most 4.70. The pKd (HLA-A*29:02) was at most 4.70, the pKd (HLA-A*69:01; [8]) was at most 4.70 and the pKd (HLA-B*15:01; [8]) was at most 4.70. For the same sequence, the pKd (HLA-B*15:17; [8]) was 6.69, the pKd (HLA-B*27:03; [8]) was at most 4.70 and the pKd (HLA-B*39:01; [8]) was at most 4.70. It also gave a pKd (HLA-B*46:01; [8]) of at most 4.70.

Source: the Immune Epitope Database (IEDB)
